The source of these data is patent US20210071139A1.

One experiment deals with TOX (UniProt Q66JW3). In words: TOX IP-MS, EL4 nuclear extract, MiST; row of the bait itself.
TOX, sequence (Q66JW3 whole entry): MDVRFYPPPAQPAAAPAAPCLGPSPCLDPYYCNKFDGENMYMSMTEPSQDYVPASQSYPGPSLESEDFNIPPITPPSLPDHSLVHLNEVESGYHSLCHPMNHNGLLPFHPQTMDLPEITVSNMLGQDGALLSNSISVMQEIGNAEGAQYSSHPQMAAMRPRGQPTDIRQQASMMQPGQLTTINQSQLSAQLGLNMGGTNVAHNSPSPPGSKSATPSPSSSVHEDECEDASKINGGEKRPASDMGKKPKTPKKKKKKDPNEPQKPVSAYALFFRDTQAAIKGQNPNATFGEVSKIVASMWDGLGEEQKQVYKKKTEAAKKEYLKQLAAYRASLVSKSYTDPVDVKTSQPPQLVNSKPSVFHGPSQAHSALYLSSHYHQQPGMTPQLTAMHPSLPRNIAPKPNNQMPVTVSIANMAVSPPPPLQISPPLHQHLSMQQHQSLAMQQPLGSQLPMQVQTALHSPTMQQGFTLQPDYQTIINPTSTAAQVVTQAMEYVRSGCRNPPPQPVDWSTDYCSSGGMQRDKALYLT
anti-TOX antibody (Abcam, ab155768) came in with an Abundance of 0.00704, a MiST Score of 0.976, a Reproducibility of 0.964 and a Specificity of 0.99.

In the next experiment the target is TOX (UniProt Q66JW3). Briefly: anti-TOX IP from EL4 nuclear extract, LC-MS/MS, MiST vs IgG control.
For Rbm25 (from UniProt B2RY56 1-838), the Abundance was 9.24e-06, the MiST Score came out at 0.755, the Reproducibility came out at 0.601 and the Specificity came out at 0.831.

As for Pnn (from UniProt O35691 2-725), the Abundance was found to be 7.35e-05, the MiST Score came out at 0.762, the Reproducibility turned out to be 0.681 and the Specificity came out at 0.805.

Thoc6 (from UniProt Q5U4D9 1-341): the Abundance stood at 3.97e-05, the MiST Score is 0.76, the Reproducibility was 0.994 and the Specificity was 0.661.

The substance Bclaf1 (from UniProt Q8K019 1-919) registered an Abundance of 6.73e-05, a MiST Score of 0.756, a Reproducibility of 0.872 and a Specificity of 0.71.

Regarding Ccdc86 (from UniProt Q9JJ89 1-426), the Abundance was found to be 3.82e-05, the MiST Score stood at 0.751, the Reproducibility was found to be 0.964 and the Specificity was 0.662.

For the substance Abcf2 (from UniProt Q99LE6 1-628), the Abundance worked out at 2.89e-05, the MiST Score worked out at 0.756, the Reproducibility was found to be 0.917 and the Specificity was 0.69.

Abcf1 (from UniProt Q6P542 1-837) came in with an Abundance of 1.12e-05, a MiST Score of 0.76, a Reproducibility of 0.747 and a Specificity of 0.773.

As to Pabpn1 (from UniProt Q8CCS6 2-302), the Abundance worked out at 8.22e-05, the MiST Score is 0.759, the Reproducibility was 0.992 and the Specificity was determined as 0.66.

In turn, Pop1 had an Abundance of 2.18e-06, a MiST Score of 0.754, a Reproducibility of 0.906 and a Specificity of 0.693.

In the case of “Yme1l1 (from UniProt O88967 1-715) (enzyme)”, the Abundance was 1.45e-05, the MiST Score turned out to be 0.75, the Reproducibility was 0.988 and the Specificity amounted to 0.65.

As for Ap2a1 (from UniProt P17426 1-977), the Abundance was found to be 2.47e-06, the MiST Score came out at 0.754, the Reproducibility amounted to 0.846 and the Specificity is 0.719.

Rrp1 (from UniProt P56183 1-494): the Abundance was found to be 9e-06, the MiST Score is 0.753, the Reproducibility amounted to 0.976 and the Specificity amounted to 0.659.

Consider Nol7 (from UniProt Q9D7Z3 1-254), for which the Abundance came out at 0.000128, the MiST Score came to 0.757, the Reproducibility came to 0.972 and the Specificity was found to be 0.666.

For the substance “Top3b (from UniProt Q9Z321 1-862) (enzyme)”, the Abundance was determined as 8.1e-07, the MiST Score was 0.752, the Reproducibility came to 0.541 and the Specificity stood at 0.854.

Eif3a (from UniProt P23116 1-1344) displayed an Abundance of 1.17e-05, a MiST Score of 0.764, a Reproducibility of 0.795 and a Specificity of 0.757.

As to Cnot10 (from UniProt Q8BH15 2-744), the Abundance stood at 8.51e-06, the MiST Score was found to be 0.751, the Reproducibility stood at 0.946 and the Specificity is 0.669.

Substance Ebna1bp2 (from UniProt Q9D903 1-306) returned an Abundance of 9.4e-05, a MiST Score of 0.752, a Reproducibility of 0.984 and a Specificity of 0.654.

As to Rsl1d1 (from UniProt Q8BVY0 1-452), the Abundance is 0.000211, the MiST Score came out at 0.759, the Reproducibility was found to be 0.984 and the Specificity came to 0.665.

With Cwc15 (from UniProt Q9JHS9 2-229), the Abundance was 9.35e-05, the MiST Score stood at 0.756, the Reproducibility was determined as 0.814 and the Specificity stood at 0.736.

Take Raver1 (from UniProt Q9CW46 2-748): the Abundance is 4.89e-05, the MiST Score amounted to 0.762, the Reproducibility was 0.839 and the Specificity stood at 0.734.

Consider Paxbp1 (from UniProt P58501 1-919), for which the Abundance was 1.83e-06, the MiST Score came to 0.75, the Reproducibility came out at 0.516 and the Specificity turned out to be 0.862.
